Earlier results on one substance are cited in article PMC7096212.

One data set has as its target insulin (Homo sapiens) (UniProt P01308).
Data set [1] concerns the target DILP-5 (Drosophila melanogaster) (UniProt Q7KUD5).
A further data set has as its target IGF-1 (Homo sapiens) (UniProt P05019).
Sequence of UniProt P05019 (P05019 49-118): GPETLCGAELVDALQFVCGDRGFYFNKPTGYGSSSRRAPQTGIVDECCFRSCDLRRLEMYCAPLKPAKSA

Sequence of UniProt Q7KUD5 (Q7KUD5 23-50, chain 1 of 2): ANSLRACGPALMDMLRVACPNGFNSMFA
Sequence of UniProt Q7KUD5 (Q7KUD5 84-108, chain 2 of 2): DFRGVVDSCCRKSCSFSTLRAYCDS
Sequence of UniProt P01308 (P01308 90-110): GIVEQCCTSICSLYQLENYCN

For the substance IBP (from UniProt Q09024), the Kd (commonly the equilibrium constant for the complex coming apart) with insulin (Homo sapiens) was 135 nM; in data set [1], 2 nM; with IGF-1 (Homo sapiens) it was 13.6 nM.
